# Test results reported in patent US20020028482A1, “NIP45 HUMAN HOMOLOG” (priority 1997, published 2002).
# T1: hNFAT1 (Homo sapiens, UniProt Q13469)
# T1 construct: contains the coding region for 400-692 amino acid residues of hNFAT 1; expressed in transfected cells; host or cells: yeast strain EGY48/p8op-lacZ
# T1 sequence (Q13469 400-692): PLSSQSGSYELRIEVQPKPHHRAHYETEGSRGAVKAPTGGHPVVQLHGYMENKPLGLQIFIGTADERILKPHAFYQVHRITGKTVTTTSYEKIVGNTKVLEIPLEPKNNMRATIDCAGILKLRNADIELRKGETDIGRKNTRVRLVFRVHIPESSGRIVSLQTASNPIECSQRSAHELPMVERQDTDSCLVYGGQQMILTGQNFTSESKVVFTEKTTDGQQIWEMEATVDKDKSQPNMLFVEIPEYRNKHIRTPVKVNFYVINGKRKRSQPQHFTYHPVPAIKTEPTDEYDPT
# B1: mNIP45: murine NIP45, NF-ATp interacting protein, 412 amino acid residues, SEQ ID NO:4 (protein, listed as Mus musculus)
# chain: MAEPLRGRGPRSRGGRGARRARGARGRCPRARQSPARLIPDTVLVDLVSDSDEEVLEVADPVEVPVARLPAPAKPEQDSDSDSEGAAEGPAGAPRTLVRRRRRRLLDPGEAPVVPVYSGKVQSSLNLIPDNSSLLKLCPSEPEDEADLTNSGSSPSEDDALPSGSPWRKKLRKKCEKEEKKMEEFPDQDISPLPQPSSRNKSRKHTEALQKLREVNKRLQDLRSCLSPKQHQSPALQSTDDEVVLVEGPVLPQSSRLFTLKIRCRADLVRLPVRMSEPLQNVVDHMANHLGVSPNRILLLFGESELSPTATPSTLKLGVADIIDCVVLASSSEATETSQELRLRVQGKEKHQMLEISLSPDSPLKVLMSHYEEAMGLSGHKLSFFFDGTKLSGKELPADLGLESGDLIEVWG
# B2: hNIP45: novel human NIP45 polypeptide, 419 amino acid residues, SEQ ID NO:3, IL-4 transcriptional trans-activator (protein, listed as Homo sapiens)
# chain: MAEPVGKRGRWSGGSGAGRGGRGGWGGRGRRPRAQRSPSRGTLDVVSVDLVTDSDEEILEVATARGAADEVEVEPPEPPGPVASRDNSNSDSEGEDRRPAGPPREPVRRRRRLVLDPGEAPLVPVYSGKVKSSLRLIPDDLSLLKLYPPGDEEEAELADSSGLYHEGSPSPGSPWKTKLRTKDKEEKKKTEFLDLDNSPLSPPSPRTKSRTHTRALKKLSEVNKRLQDLRSCLSPKPPQGQEQQGQEDEVVLVEGPTLPETPRLFPLKIRCRADLVRLPLRMSEPLQSVVDHMATHLGVSPSRILLLFGETELSPTATPRTLKLGVADIIDCVVLTSSPEATETSQQLQLRVQGKEKHQTLEVSLSRDSPLKTLMSHYEEAMGLSGRKLSFFFDGTKLSGRELPADLGMESGDLIEVWG
# Tests used:
# LacZ = LacZ (Escherichia coli, UniProt P00722); conditions: LacZ substrate
# Procedure: (1) CPRG is used rather than ONPG. […] In assays SmM (10×Km) is used which we take to be approximately saturating.
# Grow yeast cultures overnight. Dilute back to OD 0.05 to 0.1 next day and allow to continue growing. When they have reached an OD of about 1, make a set of dilutions in culture medium. Add 120 ul of each dilution to the wells of a microtitre plate. Start the reaction by addition of 30 ul reaction buffer and measure the initial rate of reaction (kinetic read over 10 minutes).
# HepG2 cells = conditions: overexpression in HepG2 cells; cited from earlier work
# mNFATp = assay: yeast two hybrid assay, interaction with mNFATp; assay type: binding, murine; conditions: colonies, FIG. 11 and FIG. 12
# Procedure: An hNIP45 AD-fusion construct is co-transformed into the yeast host EGY48 (CLONTECH, cat # K1609-1) with the original murine LexA-NFATp bait and reporter, pSH18-34 (CLONTECH, cat# K1609-1). The functional conservation of hNIP45 is assessed by its ability of interacting with the NFATp protein to activate the reporter gene expression. Hodge, M., et al., NF-AT-Driven Interleukin-4 Transcription Potentiated by NIP45, Science, 274:1903 (1996). See, Example VI infra.
# hNFAT1 = target: T1, hNFAT1; assay: yeast two hybrid assay, interaction with hNFAT1; assay type: binding; conditions: colonies, FIG. 11 and FIG. 12
# Source text: A 879 bp DNA fragment, corresponding to positions 1418-2296 of hNFAT1 nucleic acid sequence (GenBank Accession number U43342), was PCR amplified via standard methods using Clontech human lymph node Marathon Ready cDNA as template. CLONTECH, Palo Alto, Calif. The resulting PCR product was cloned into the bait vector, plexA-BD (CLONTECH). The hybrid construct (plexA-BD-hNFAT1-BD) contains the coding region for 400-692 amino acid residues of hNFAT 1, which corresponds to the DNA binding region of the hNFAT 1 protein. The full length hNIP45H cNDA was cloned into prey vector pB42AD (CLONTECH). This hybrid construct (pB42AD-hNIP45H) contains the entire open reading frame of […].
# Yeast strain EGY48/p8op-lacZ (CLONTECH) was transformed with the plexA-BD-hNFAT1-BD plasmid. […] Yeast strain EGY/p8op-lacZ/plexA-BD-hNFAT1-BD was subsequently transformed with pB42AD-hNIP45H prey construct. Transformants from SD/-UHW plates were subsequently tested on a 4-plate test (SD/-UHW, X-gal vs. GR/-UHW, X-gal, and SD/-UHWL vs. GR/-UHWL).
# LacZ, sequence (P00722 whole entry): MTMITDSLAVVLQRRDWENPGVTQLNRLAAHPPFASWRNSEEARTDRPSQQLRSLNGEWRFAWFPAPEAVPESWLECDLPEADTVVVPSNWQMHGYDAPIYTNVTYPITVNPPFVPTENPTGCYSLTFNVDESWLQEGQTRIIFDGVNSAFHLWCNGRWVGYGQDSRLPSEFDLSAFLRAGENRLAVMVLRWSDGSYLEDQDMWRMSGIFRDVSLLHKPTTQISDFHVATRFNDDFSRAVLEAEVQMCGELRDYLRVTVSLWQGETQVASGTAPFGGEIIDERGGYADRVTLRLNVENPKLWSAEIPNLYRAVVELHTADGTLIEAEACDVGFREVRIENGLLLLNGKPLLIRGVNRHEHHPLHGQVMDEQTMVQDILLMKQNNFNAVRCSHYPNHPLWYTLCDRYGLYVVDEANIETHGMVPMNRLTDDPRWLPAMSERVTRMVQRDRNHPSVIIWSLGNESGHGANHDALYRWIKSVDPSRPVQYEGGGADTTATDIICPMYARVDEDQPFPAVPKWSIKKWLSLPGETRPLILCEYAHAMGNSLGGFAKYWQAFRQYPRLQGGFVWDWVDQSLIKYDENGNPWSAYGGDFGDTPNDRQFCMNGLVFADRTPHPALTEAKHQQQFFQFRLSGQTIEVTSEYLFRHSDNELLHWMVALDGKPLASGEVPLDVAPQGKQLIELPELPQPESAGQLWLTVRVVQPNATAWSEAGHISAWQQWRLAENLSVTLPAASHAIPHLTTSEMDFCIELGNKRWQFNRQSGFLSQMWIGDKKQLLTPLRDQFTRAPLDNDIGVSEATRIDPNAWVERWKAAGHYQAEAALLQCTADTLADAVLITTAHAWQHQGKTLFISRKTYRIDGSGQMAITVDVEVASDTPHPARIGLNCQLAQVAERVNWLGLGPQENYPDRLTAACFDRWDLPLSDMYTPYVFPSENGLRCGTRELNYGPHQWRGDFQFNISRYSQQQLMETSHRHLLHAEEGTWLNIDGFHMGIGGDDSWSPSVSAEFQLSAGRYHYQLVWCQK
# mNFATp, sequence (Q60591 394-576 limits assumed): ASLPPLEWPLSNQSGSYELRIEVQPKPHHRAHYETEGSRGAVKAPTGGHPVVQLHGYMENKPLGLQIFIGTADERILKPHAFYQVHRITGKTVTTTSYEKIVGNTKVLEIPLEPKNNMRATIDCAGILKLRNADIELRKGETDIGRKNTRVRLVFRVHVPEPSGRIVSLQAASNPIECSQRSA
Molecule,Km (LacZ) [µM],increase of endogenous IL-4 production (HepG2 cells) [fold],interaction with mNFATp (mNFATp),interaction with hNFAT1 (hNFAT1)
"O=S1(=O)OC(c2ccc(O)c(Cl)c2)(c2ccc(O[C@@H]3O[C@H](CO)[C@H](O)[C@H](O)[C@H]3O)c(Cl)c2)c2ccccc21 (stereo partly drawn) [CPRG, Chlorophenol red-b-D-galacopyranoside]",~500,–,–,–
B1,–,200,interacts well,does not interact with hNFAT1 very well
B2,–,–,–,interacts well
